Laboratory results as given in publication PMC6318265, “Structure of BAI1/ELMO2 complex reveals an action mechanism of adhesion GPCRs via ELMO family scaffolds” (Nature Communications, 2019).

T1: ELMO2-RAE (sample of the ITC titration) (human, UniProt Q96JJ3 1-520)
T1 construct: ELMO2, GenBank AF398886.1, aa 1-520 (RBD-ARR-ELMO tandem); Tag removal is described only for crystallography; also called Trx-His6-ELMO2-RAE; source: E. coli BL21 (DE3), purified (Ni-NTA, SEC)
T1 sequence (looked up): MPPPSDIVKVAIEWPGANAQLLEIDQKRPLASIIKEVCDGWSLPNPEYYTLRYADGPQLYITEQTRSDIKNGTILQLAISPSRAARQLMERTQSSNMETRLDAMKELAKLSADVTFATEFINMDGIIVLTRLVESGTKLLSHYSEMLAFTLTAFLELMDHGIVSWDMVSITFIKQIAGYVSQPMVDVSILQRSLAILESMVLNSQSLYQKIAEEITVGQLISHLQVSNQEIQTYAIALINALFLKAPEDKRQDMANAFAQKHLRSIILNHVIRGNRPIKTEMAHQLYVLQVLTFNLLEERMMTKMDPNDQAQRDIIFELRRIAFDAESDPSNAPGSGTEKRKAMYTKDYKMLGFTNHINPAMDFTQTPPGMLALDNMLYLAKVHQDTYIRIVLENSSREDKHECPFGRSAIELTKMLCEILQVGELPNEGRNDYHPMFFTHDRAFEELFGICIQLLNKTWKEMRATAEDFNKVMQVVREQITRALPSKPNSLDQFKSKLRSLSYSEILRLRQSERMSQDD

T2: ELMO2-RAE (tag removed, for crystallography) (human, UniProt Q96JJ3 1-520)
T2 construct: ELMO2, GenBank AF398886.1, aa 1-520 (RBD aa 1-80, ARR aa 81-301, ELMO domain aa 306-513); also called RAE tandem of ELMO2; source: E. coli BL21 (DE3), purified (Ni-NTA, SEC, 3C protease cleavage, SEC)
T2 sequence (looked up): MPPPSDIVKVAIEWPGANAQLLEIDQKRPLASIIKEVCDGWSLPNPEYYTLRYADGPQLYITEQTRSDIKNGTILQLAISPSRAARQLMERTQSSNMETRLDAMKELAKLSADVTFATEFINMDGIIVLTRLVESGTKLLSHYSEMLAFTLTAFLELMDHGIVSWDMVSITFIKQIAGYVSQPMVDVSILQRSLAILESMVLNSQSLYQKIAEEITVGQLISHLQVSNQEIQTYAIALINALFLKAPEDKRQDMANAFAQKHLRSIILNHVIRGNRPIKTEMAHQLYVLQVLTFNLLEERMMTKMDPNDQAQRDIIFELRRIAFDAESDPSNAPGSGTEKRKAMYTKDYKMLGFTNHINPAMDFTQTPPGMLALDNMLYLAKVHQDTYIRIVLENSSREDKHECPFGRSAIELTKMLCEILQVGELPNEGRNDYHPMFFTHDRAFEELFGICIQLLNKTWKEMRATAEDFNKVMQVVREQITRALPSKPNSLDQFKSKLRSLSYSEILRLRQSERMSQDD


Assays:
[1] = biological target: T1, ELMO2-RAE (sample of the ITC titration); assay: ITC; MicroCal iTC200, 25 °C; 50 mM Tris pH 8.0, 100 mM NaCl, 1 mM EDTA, 1 mM DTT; BAI1-EBD (~500 µM) in the syringe, ELMO2-RAE (~40 µM) in the cell; conditions: both partners purified
[2] = biological target: T2, ELMO2-RAE (tag removed, for …); assay: crystal structure; ELMO2-RAE mixed with synthetic BAI1-EBD peptide at 1:2; 0.3 M ammonium fluoride, 18% PEG3,350, 16 °C; 1.7 Å, molecular replacement; conditions: both partners purified

Kd [1]	stoichiometry N [1]	stoichiometry N [2]	Binder
~3.36 µM	1	–	SLERRKSRYAELDFEKIMHTRKRHQDMFQDLNRKLQ (domain or fragment, mouse, UniProt Q3UHD1-1 1467-1502, looked up, the methods speak of 'BAI1 proteins') [BAI1-EBD (sample of the ITC titration)]
–	–	1	SLERRKSRYAELDFEKIMHTRKRHQDMFQDLNRKLQ (peptide, UniProt Q3UHD1-1 1467-1502, looked up, aa 1471-1495 are defined in the electron density; source: synthetic peptide (ChinaPeptide Co.,Ltd.)) [synthetic BAI1-EBD peptide]
